Laboratory results taken from the supplement of paper PMC10567573.

B1: CFHR2 (parent)
chain: FVENGHSESSGQTHLEGDTVQIIC

Variants of: B1
Assay: protein stability index of a GFP-peptide fusion (GPS, HEK-293T) (PSI 1-6); higher = more stable
Details: c terminus: a fixed tail appended
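Also: lentivirally expressed fusions sorted by FACS into six bins by GFP to DsRed ratio, PSI derived from sequencing read proportions per bin multiplied by bin number.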

Protein stability index of substitutions, site by site:
E3: H 2.08 | I 1.94 | K 1.78 | L 1.81 | M 1.5 | N 1.92 | P 2.38 | Q 1.83 | R 1.67 | S 2.12 | T 2.23 | V 1.54 | W 1.56 | Y 1.98
N4: A 2.42 | C 1.98 | D 3.92 | E 3.47 | F 1.83 | G 2.59 | H 2.62 | I 2.13 | K 3.03 | L 1.76 | M 1.8 | P 2.53 | Q 2.81 | R 2.05 | S 2.4 | T 2.51 | V 2.18 | W 2.8 | Y 2.37
G5: A 2.77 | C 2.03 | D 3.64 | E 4.09 | F 2.55 | H 2.49 | I 2.2 | K 2.64 | L 2.77 | M 2.28 | N 3.23 | P 2.27 | Q 2.57 | R 1.82 | S 3.01 | T 2.97 | V 2.87 | W 3.48 | Y 3.09
H6: A 3.02 | C 2.28 | D 3.87 | E 3.65 | F 2.29 | G 3.12 | I 2.57 | K 3.33 | L 2.19 | M 2.32 | N 3.52 | P 3.18 | Q 2.37 | R 2.85 | S 2.92 | T 2.79 | V 2.74 | W 2.7 | Y 1.93
S7: A 2.72 | C 2.34 | D 3.09 | E 3.87 | F 1.43 | G 2.63 | H 2.75 | I 2.42 | K 2.84 | L 3.1 | M 2.19 | N 3.14 | P 3.12 | Q 3.04 | R 2.29 | T 3.24 | V 2.39 | W 4.33 | Y 1.64
E8: A 2.15 | C 1.82 | D 2.75 | F 1.64 | G 2.22 | H 2.08 | I 1.57 | K 1.97 | L 1.81 | M 1.57 | N 2.18 | P 2.51 | Q 2.15 | R 2.28 | S 2.32 | T 2.16 | V 2.45 | W 3.2 | Y 2.29
S9: A 2.5 | C 2.02 | D 3.23 | E 3.22 | F 2.19 | G 2.7 | H 2.77 | I 2.2 | K 2.76 | L 1.99 | M 2.32 | N 2.76 | P 2.75 | Q 3.14 | R 2.14 | T 2.78 | V 2.15 | Y 1.66
S10: A 2.65 | C 2 | D 3.51 | E 3.33 | F 1.97 | G 2.87 | H 2.34 | I 1.56 | K 2.65 | L 2.31 | M 2.08 | N 2.99 | P 3.49 | Q 2.77 | R 2.59 | T 2.73 | V 1.75 | Y 1.94
G11: A 2.56 | C 2.19 | D 3.4 | E 3.32 | F 1.98 | H 2.67 | I 1.81 | K 2.39 | L 2.5 | M 2.03 | N 3.09 | P 3.22 | Q 2.96 | R 2.86 | S 2.48 | T 2.86 | V 2.67 | W 2.33 | Y 2.04
Q12: A 2.43 | C 1.86 | D 3.46 | E 3.67 | F 2.23 | G 3.2 | H 2.4 | I 2.06 | K 2.05 | L 1.69 | M 1.76 | N 3.39 | P 3.19 | R 1.92 | S 2.49 | T 2.62 | V 2.08 | W 2.35 | Y 1.62
T13: A 2.54 | C 2.55 | D 3.43 | E 3.3 | F 1.88 | G 3.03 | H 2.34 | I 2.06 | K 2.48 | L 2.29 | M 2.19 | N 3.35 | P 2.87 | Q 3.18 | R 2.47 | S 2.95 | V 2.24 | W 1.85 | Y 2.19
H14: A 3.11 | C 1.96 | D 3.29 | E 4.18 | F 1.89 | G 2.47 | I 3.28 | K 2.35 | L 2.37 | M 2.35 | N 3.43 | P 2.83 | Q 3.46 | R 2.89 | S 3.02 | T 3.08 | V 2.95 | W 1.75 | Y 2.52
L15: A 3.22 | C 2.78 | D 3.4 | E 3.15 | F 2.2 | G 2.9 | H 3 | I 2.69 | K 3.25 | M 3.13 | N 3.49 | P 3.2 | Q 3.65 | R 2.87 | S 3.22 | T 3.12 | V 2.99 | W 1.53 | Y 2.76
E16: A 2.13 | C 1.82 | D 3.12 | G 2.01 | H 1.86 | I 2.25 | K 2.19 | L 2.59 | M 2.14 | N 2.15 | P 2.42 | Q 2.33 | R 2.63 | S 2.71 | T 2.62 | V 1.76
G17: A 2.3 | C 2.28 | D 3.46 | E 4.47 | F 1.8 | H 2.99 | I 2.05 | K 2.54 | L 2.08 | M 2.29 | N 2.9 | P 2.81 | Q 2.97 | R 2.52 | S 2.77 | T 2.91 | V 2.11 | W 1.79 | Y 1.73
D18: A 2.13 | C 1.65 | E 2.76 | F 2.33 | G 2.3 | H 2.28 | I 2.02 | K 2.52 | L 2.62 | M 1.83 | N 2.25 | P 2.23 | Q 2.47 | R 2.07 | S 2.58 | T 2.31 | V 2.34 | W 1.62 | Y 2.36
T19: C 2.84 | D 3.68 | E 3.09 | F 2.66 | G 3.25 | H 3.1 | I 2.62 | K 2.82 | L 2.14 | M 2.33 | N 3.71 | P 3.13 | Q 3.19 | R 2.37 | S 3.21 | V 3.3 | W 1.53 | Y 2.24
V20: A 3.64 | C 2.69 | D 3.81 | E 4.03 | F 2.02 | G 4 | H 3.41 | I 2.19 | K 3.06 | L 2.45 | M 2.59 | N 3.66 | P 3.26 | Q 4.09 | R 3.3 | S 2.74 | T 3.74 | W 1.57 | Y 2.71
Q21: A 3.11 | C 2.18 | D 3.69
